Literature values in PMC2806950.
pKd: −log10 of the molar value.

Target: EcoKI R/M enzyme (Escherichia coli) (UniProt P08956)
Experiment: given as Ka

Sequence of Ocr (P03775 whole entry): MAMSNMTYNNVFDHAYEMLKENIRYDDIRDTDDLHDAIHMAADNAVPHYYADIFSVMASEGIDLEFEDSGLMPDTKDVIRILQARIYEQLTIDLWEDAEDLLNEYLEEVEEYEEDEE
Sequence of EcoKI R/M enzyme (Escherichia coli) (P08956 whole entry, chain 1 of 3): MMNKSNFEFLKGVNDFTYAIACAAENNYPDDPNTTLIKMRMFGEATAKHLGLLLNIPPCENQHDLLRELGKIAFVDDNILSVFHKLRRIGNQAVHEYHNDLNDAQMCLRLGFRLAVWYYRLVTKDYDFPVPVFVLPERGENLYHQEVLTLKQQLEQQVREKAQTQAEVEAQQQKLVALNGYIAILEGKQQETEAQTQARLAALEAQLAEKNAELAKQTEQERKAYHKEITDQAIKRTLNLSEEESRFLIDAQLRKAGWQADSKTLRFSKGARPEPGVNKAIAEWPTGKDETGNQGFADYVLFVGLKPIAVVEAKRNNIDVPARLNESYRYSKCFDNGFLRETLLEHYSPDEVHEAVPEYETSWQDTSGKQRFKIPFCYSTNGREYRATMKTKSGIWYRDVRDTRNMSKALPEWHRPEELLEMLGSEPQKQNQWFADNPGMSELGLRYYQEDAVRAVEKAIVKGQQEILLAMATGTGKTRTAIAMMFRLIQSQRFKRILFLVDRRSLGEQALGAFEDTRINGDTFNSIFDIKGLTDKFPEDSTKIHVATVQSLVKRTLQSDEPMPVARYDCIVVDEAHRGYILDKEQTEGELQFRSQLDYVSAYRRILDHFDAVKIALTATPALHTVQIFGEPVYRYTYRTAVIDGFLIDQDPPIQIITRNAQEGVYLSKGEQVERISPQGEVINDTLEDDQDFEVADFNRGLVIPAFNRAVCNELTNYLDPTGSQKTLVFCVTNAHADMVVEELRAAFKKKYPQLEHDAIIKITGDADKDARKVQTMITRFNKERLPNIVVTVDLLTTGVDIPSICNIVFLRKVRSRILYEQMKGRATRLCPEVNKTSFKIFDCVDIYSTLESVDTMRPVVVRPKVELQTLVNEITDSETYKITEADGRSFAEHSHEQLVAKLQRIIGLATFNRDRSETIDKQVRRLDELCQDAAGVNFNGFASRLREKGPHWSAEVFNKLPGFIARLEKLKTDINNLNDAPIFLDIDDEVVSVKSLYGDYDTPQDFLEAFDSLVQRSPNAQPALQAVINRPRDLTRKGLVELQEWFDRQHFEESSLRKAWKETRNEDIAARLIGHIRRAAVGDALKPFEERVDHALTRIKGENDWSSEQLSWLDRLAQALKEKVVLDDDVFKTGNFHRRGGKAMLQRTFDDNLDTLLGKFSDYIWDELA
Sequence of EcoKI R/M enzyme (Escherichia coli) (P08957 whole entry, chain 2 of 3, further chain): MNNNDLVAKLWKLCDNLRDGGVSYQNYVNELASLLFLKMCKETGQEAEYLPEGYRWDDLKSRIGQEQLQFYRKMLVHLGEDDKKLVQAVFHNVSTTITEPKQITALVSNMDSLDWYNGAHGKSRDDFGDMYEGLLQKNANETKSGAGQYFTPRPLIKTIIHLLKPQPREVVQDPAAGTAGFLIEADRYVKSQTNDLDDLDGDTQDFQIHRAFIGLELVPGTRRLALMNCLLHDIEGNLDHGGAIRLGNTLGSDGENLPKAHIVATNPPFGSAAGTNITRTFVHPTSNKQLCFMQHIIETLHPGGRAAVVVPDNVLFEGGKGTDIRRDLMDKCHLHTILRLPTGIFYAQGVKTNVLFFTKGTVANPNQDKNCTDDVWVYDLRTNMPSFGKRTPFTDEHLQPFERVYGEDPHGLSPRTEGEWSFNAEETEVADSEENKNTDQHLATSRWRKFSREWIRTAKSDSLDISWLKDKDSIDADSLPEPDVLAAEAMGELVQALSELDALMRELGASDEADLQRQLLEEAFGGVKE
Sequence of EcoKI R/M enzyme (Escherichia coli) (P05719 2-464, chain 3 of 3, further chain): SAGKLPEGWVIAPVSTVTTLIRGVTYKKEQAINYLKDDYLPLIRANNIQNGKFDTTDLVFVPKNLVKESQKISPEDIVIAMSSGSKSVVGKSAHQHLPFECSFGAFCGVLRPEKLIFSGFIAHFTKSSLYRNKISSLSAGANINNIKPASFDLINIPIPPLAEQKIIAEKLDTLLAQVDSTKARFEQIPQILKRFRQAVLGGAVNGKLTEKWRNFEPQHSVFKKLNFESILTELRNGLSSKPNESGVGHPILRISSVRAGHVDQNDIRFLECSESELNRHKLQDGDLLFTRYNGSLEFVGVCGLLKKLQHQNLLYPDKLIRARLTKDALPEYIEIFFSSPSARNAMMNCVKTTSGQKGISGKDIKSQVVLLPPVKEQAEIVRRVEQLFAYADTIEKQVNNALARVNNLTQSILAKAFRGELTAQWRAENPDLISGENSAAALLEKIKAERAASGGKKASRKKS

Question: With Ocr (from UniProt P03775) as the substance, how does the pKd read?
Answer: The pKd was 10.30.
